Data: US20150087577A1 (POLYPHOR, published 2015)
Values belong to the binder of their own block, whether it stands above or below them. Bridges are numbered along the chain shown (N, C = ends). [ ]: non-standard residue; d: D form. Phe(4-F) = N[C@@H](Cc1ccc(F)cc1)C(=O)O; 2Nal = N[C@@H](Cc1ccc2ccccc2c1)C(=O)O; Cit = NC(=O)NCCC[C@H](N)C(=O)O

Molecular target: human CXCR4 (human, UniProt P61073 1-352)
Test: cell-based or functional assay

human CXCR4, sequence (P61073 whole entry): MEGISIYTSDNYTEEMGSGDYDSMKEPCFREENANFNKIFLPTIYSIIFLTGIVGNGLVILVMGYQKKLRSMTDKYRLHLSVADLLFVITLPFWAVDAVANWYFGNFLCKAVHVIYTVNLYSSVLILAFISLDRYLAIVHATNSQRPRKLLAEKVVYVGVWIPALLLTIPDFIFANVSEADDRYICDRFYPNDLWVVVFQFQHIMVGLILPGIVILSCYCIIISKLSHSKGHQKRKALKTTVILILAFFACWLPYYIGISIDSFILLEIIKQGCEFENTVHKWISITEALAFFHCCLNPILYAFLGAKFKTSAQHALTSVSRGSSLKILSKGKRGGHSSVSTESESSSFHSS

B2: Example 100 (peptide)
peptide: cyclo(YRMCRG[dP]RR[2Nal]CYQK[dP]P)
modifications: disulfide 4-11
SMILES: CSCC[C@@H]1NC(=O)[C@H](CCCNC(=N)N)NC(=O)[C@H](Cc2ccc(O)cc2)NC(=O)[C@@H]2CCCN2C(=O)[C@H]2CCCN2C(=O)[C@H](CCCCN)NC(=O)[C@H](CCC(N)=O)NC(=O)[C@H](Cc2ccc(O)cc2)NC(=O)[C@@H]2CSSC[C@H](NC1=O)C(=O)N[C@@H](CCCNC(=N)N)C(=O)NCC(=O)N1CCC[C@@H]1C(=O)N[C@@H](CCCNC(=N)N)C(=O)N[C@@H](CCCNC(=N)N)C(=O)N[C@@H](Cc1ccc3ccccc3c1)C(=O)N2
- IC50 (nM) Ca2+ assay (method 2): 7 nM

B4: Example 91 (peptide)
peptide: cyclo(MR[Cit]CRG[dP]RR[2Nal]CYQK[dP]P)
modifications: disulfide 4-11
SMILES: CSCC[C@@H]1NC(=O)[C@@H]2CCCN2C(=O)[C@H]2CCCN2C(=O)[C@H](CCCCN)NC(=O)[C@H](CCC(N)=O)NC(=O)[C@H](Cc2ccc(O)cc2)NC(=O)[C@@H]2CSSC[C@H](NC(=O)[C@H](CCCNC(N)=O)NC(=O)[C@H](CCCNC(=N)N)NC1=O)C(=O)N[C@@H](CCCNC(=N)N)C(=O)NCC(=O)N1CCC[C@@H]1C(=O)N[C@@H](CCCNC(=N)N)C(=O)N[C@@H](CCCNC(=N)N)C(=O)N[C@@H](Cc1ccc3ccccc3c1)C(=O)N2
- IC50 (nM) Ca2+ assay (method 2): 2.1 nM

B5: Example 102 (peptide)
peptide: cyclo(YRSCRG[dP]RRWCY[Cit]D[dP]P)
modifications: disulfide 4-11
SMILES: N=C(N)NCCC[C@@H]1NC(=O)[C@@H]2CSSC[C@H](NC(=O)[C@H](Cc3c[nH]c4ccccc34)NC(=O)[C@H](CCCNC(=N)N)NC(=O)[C@H](CCCNC(=N)N)NC(=O)[C@H]3CCCN3C(=O)CNC1=O)C(=O)N[C@@H](Cc1ccc(O)cc1)C(=O)N[C@@H](CCCNC(N)=O)C(=O)N[C@@H](CC(=O)O)C(=O)N1CCC[C@@H]1C(=O)N1CCC[C@H]1C(=O)N[C@@H](Cc1ccc(O)cc1)C(=O)N[C@@H](CCCNC(=N)N)C(=O)N[C@@H](CO)C(=O)N2
- IC50 (nM) Ca2+ assay (method 2): 8 nM

B6: Example 95 (peptide)
peptide: cyclo(YRACRG[dP]RR[2Nal]CYQK[dP]P)
modifications: disulfide 4-11
SMILES: C[C@@H]1NC(=O)[C@H](CCCNC(=N)N)NC(=O)[C@H](Cc2ccc(O)cc2)NC(=O)[C@@H]2CCCN2C(=O)[C@H]2CCCN2C(=O)[C@H](CCCCN)NC(=O)[C@H](CCC(N)=O)NC(=O)[C@H](Cc2ccc(O)cc2)NC(=O)[C@@H]2CSSC[C@H](NC1=O)C(=O)N[C@@H](CCCNC(=N)N)C(=O)NCC(=O)N1CCC[C@@H]1C(=O)N[C@@H](CCCNC(=N)N)C(=O)N[C@@H](CCCNC(=N)N)C(=O)N[C@@H](Cc1ccc3ccccc3c1)C(=O)N2
- IC50 (nM) Ca2+ assay (method 2): 2.9 nM

B7: Example 99 (peptide)
peptide: cyclo(YR[Phe(4-F)]CRG[dP]RR[2Nal]CYQK[dP]P)
modifications: disulfide 4-11
SMILES: N=C(N)NCCC[C@@H]1NC(=O)[C@@H]2CSSC[C@H](NC(=O)[C@H](Cc3ccc4ccccc4c3)NC(=O)[C@H](CCCNC(=N)N)NC(=O)[C@H](CCCNC(=N)N)NC(=O)[C@H]3CCCN3C(=O)CNC1=O)C(=O)N[C@@H](Cc1ccc(O)cc1)C(=O)N[C@@H](CCC(N)=O)C(=O)N[C@@H](CCCCN)C(=O)N1CCC[C@@H]1C(=O)N1CCC[C@H]1C(=O)N[C@@H](Cc1ccc(O)cc1)C(=O)N[C@@H](CCCNC(=N)N)C(=O)N[C@@H](Cc1ccc(F)cc1)C(=O)N2
- IC50 (nM) Ca2+ assay (method 2): 4.2 nM

B9: Example 97 (peptide)
peptide: cyclo(YRLCRG[dP]RR[2Nal]CYQK[dP]P)
modifications: disulfide 4-11
SMILES: CC(C)C[C@@H]1NC(=O)[C@H](CCCNC(=N)N)NC(=O)[C@H](Cc2ccc(O)cc2)NC(=O)[C@@H]2CCCN2C(=O)[C@H]2CCCN2C(=O)[C@H](CCCCN)NC(=O)[C@H](CCC(N)=O)NC(=O)[C@H](Cc2ccc(O)cc2)NC(=O)[C@@H]2CSSC[C@H](NC1=O)C(=O)N[C@@H](CCCNC(=N)N)C(=O)NCC(=O)N1CCC[C@@H]1C(=O)N[C@@H](CCCNC(=N)N)C(=O)N[C@@H](CCCNC(=N)N)C(=O)N[C@@H](Cc1ccc3ccccc3c1)C(=O)N2
- IC50 (nM) Ca2+ assay (method 2): 4.3 nM

B12: Example 98 (peptide)
peptide: cyclo(YRVCRG[dP]RR[2Nal]CYQK[dP]P)
modifications: disulfide 4-11
SMILES: CC(C)[C@@H]1NC(=O)[C@H](CCCNC(=N)N)NC(=O)[C@H](Cc2ccc(O)cc2)NC(=O)[C@@H]2CCCN2C(=O)[C@H]2CCCN2C(=O)[C@H](CCCCN)NC(=O)[C@H](CCC(N)=O)NC(=O)[C@H](Cc2ccc(O)cc2)NC(=O)[C@@H]2CSSC[C@H](NC1=O)C(=O)N[C@@H](CCCNC(=N)N)C(=O)NCC(=O)N1CCC[C@@H]1C(=O)N[C@@H](CCCNC(=N)N)C(=O)N[C@@H](CCCNC(=N)N)C(=O)N[C@@H](Cc1ccc3ccccc3c1)C(=O)N2
- IC50 (nM) Ca2+ assay (method 2): 3.9 nM

B13: Example 92 (peptide)
peptide: cyclo(YRNCRG[dP]RR[2Nal]CYQK[dP]P)
modifications: disulfide 4-11
SMILES: N=C(N)NCCC[C@@H]1NC(=O)[C@@H]2CSSC[C@H](NC(=O)[C@H](Cc3ccc4ccccc4c3)NC(=O)[C@H](CCCNC(=N)N)NC(=O)[C@H](CCCNC(=N)N)NC(=O)[C@H]3CCCN3C(=O)CNC1=O)C(=O)N[C@@H](Cc1ccc(O)cc1)C(=O)N[C@@H](CCC(N)=O)C(=O)N[C@@H](CCCCN)C(=O)N1CCC[C@@H]1C(=O)N1CCC[C@H]1C(=O)N[C@@H](Cc1ccc(O)cc1)C(=O)N[C@@H](CCCNC(=N)N)C(=O)N[C@@H](CC(N)=O)C(=O)N2
- IC50 (nM) Ca2+ assay (method 2): 1.1 nM

B14: Example 93 (peptide)
peptide: cyclo(YRDCRG[dP]RR[2Nal]CYQK[dP]P)
modifications: disulfide 4-11
SMILES: N=C(N)NCCC[C@@H]1NC(=O)[C@@H]2CSSC[C@H](NC(=O)[C@H](Cc3ccc4ccccc4c3)NC(=O)[C@H](CCCNC(=N)N)NC(=O)[C@H](CCCNC(=N)N)NC(=O)[C@H]3CCCN3C(=O)CNC1=O)C(=O)N[C@@H](Cc1ccc(O)cc1)C(=O)N[C@@H](CCC(N)=O)C(=O)N[C@@H](CCCCN)C(=O)N1CCC[C@@H]1C(=O)N1CCC[C@H]1C(=O)N[C@@H](Cc1ccc(O)cc1)C(=O)N[C@@H](CCCNC(=N)N)C(=O)N[C@@H](CC(=O)O)C(=O)N2
- IC50 (nM) Ca2+ assay (method 2): 4.3 nM

Second part, the binder after the results:

- IC50 (nM) Ca2+ assay (method 2): 19.5 nM
B1: Example 90 (peptide)
peptide: cyclo(VR[Cit]CRG[dP]RR[2Nal]CYQK[dP]P)
modifications: disulfide 4-11
SMILES: CC(C)[C@@H]1NC(=O)[C@@H]2CCCN2C(=O)[C@H]2CCCN2C(=O)[C@H](CCCCN)NC(=O)[C@H](CCC(N)=O)NC(=O)[C@H](Cc2ccc(O)cc2)NC(=O)[C@@H]2CSSC[C@H](NC(=O)[C@H](CCCNC(N)=O)NC(=O)[C@H](CCCNC(=N)N)NC1=O)C(=O)N[C@@H](CCCNC(=N)N)C(=O)NCC(=O)N1CCC[C@@H]1C(=O)N[C@@H](CCCNC(=N)N)C(=O)N[C@@H](CCCNC(=N)N)C(=O)N[C@@H](Cc1ccc3ccccc3c1)C(=O)N2

- IC50 (nM) Ca2+ assay (method 1): 3730 nM
B3: Example 20 (peptide)
peptide: cyclo(YR[Cit]FR[Cit]PRR[2Nal]VY[Cit]K[dP]P)
SMILES: CC(C)[C@@H]1NC(=O)[C@H](Cc2ccc3ccccc3c2)NC(=O)[C@H](CCCNC(=N)N)NC(=O)[C@H](CCCNC(=N)N)NC(=O)[C@@H]2CCCN2C(=O)[C@H](CCCNC(N)=O)NC(=O)[C@H](CCCNC(=N)N)NC(=O)[C@H](Cc2ccccc2)NC(=O)[C@H](CCCNC(N)=O)NC(=O)[C@H](CCCNC(=N)N)NC(=O)[C@H](Cc2ccc(O)cc2)NC(=O)[C@@H]2CCCN2C(=O)[C@H]2CCCN2C(=O)[C@H](CCCCN)NC(=O)[C@H](CCCNC(N)=O)NC(=O)[C@H](Cc2ccc(O)cc2)NC1=O

- IC50 (nM) Ca2+ assay (method 2): 2.5 nM
B8: Example 94 (peptide)
peptide: cyclo(YRKCRG[dP]RR[2Nal]CYQK[dP]P)
modifications: disulfide 4-11
SMILES: N=C(N)NCCC[C@@H]1NC(=O)[C@@H]2CSSC[C@H](NC(=O)[C@H](Cc3ccc4ccccc4c3)NC(=O)[C@H](CCCNC(=N)N)NC(=O)[C@H](CCCNC(=N)N)NC(=O)[C@H]3CCCN3C(=O)CNC1=O)C(=O)N[C@@H](Cc1ccc(O)cc1)C(=O)N[C@@H](CCC(N)=O)C(=O)N[C@@H](CCCCN)C(=O)N1CCC[C@@H]1C(=O)N1CCC[C@H]1C(=O)N[C@@H](Cc1ccc(O)cc1)C(=O)N[C@@H](CCCNC(=N)N)C(=O)N[C@@H](CCCCN)C(=O)N2

- IC50 (nM) Ca2+ assay (method 2): 1.28 nM
B10: Example 101 (peptide)
peptide: cyclo(YR[Cit]CSG[dP]RR[2Nal]CYQK[dP]P)
modifications: disulfide 4-11
SMILES: N=C(N)NCCC[C@@H]1NC(=O)[C@H](CCCNC(=N)N)NC(=O)[C@H]2CCCN2C(=O)CNC(=O)[C@H](CO)NC(=O)[C@@H]2CSSC[C@H](NC(=O)[C@H](Cc3ccc4ccccc4c3)NC1=O)C(=O)N[C@@H](Cc1ccc(O)cc1)C(=O)N[C@@H](CCC(N)=O)C(=O)N[C@@H](CCCCN)C(=O)N1CCC[C@@H]1C(=O)N1CCC[C@H]1C(=O)N[C@@H](Cc1ccc(O)cc1)C(=O)N[C@@H](CCCNC(=N)N)C(=O)N[C@@H](CCCNC(N)=O)C(=O)N2

- IC50 (nM) Ca2+ assay (method 2): 3 nM
B11: Example 96 (peptide)
peptide: cyclo(YRSCRG[dP]RR[2Nal]CYQK[dP]P)
modifications: disulfide 4-11
SMILES: N=C(N)NCCC[C@@H]1NC(=O)[C@@H]2CSSC[C@H](NC(=O)[C@H](Cc3ccc4ccccc4c3)NC(=O)[C@H](CCCNC(=N)N)NC(=O)[C@H](CCCNC(=N)N)NC(=O)[C@H]3CCCN3C(=O)CNC1=O)C(=O)N[C@@H](Cc1ccc(O)cc1)C(=O)N[C@@H](CCC(N)=O)C(=O)N[C@@H](CCCCN)C(=O)N1CCC[C@@H]1C(=O)N1CCC[C@H]1C(=O)N[C@@H](Cc1ccc(O)cc1)C(=O)N[C@@H](CCCNC(=N)N)C(=O)N[C@@H](CO)C(=O)N2
